Experimental data: PMC3527473, “The C-Terminus of ClpC1 of Mycobacterium tuberculosis Is Crucial for Its Oligomerization and Function” (PLoS ONE, 2012)

Target: the molecule itself
Assay: SEC; Superdex-200 (1×30 cm) in buffer A (50 mM Tris-HCl pH 7.6, 100 mM KCl, 5 mM DTT, 10% glycerol, 0.01% Triton X-100) with 15 mM ATP and 10 mM MgCl2; protein pre-incubated with 15 mM ATP and 10 mM MgCl2 for 30 min at 25°C; monomer to hexamer; fractions checked by SDS-PAGE

B1: ClpC1-Δ3 (N-terminal truncated mutant, both N-terminal domains deleted) (domain or fragment)
chain: REGEGVAAQVLVKLGAELTRVRQQVIQLLSGYQGKEAAEAGTGGRGGESGSPSTSLVLDQFGRNLTAAAMEGKLDPVIGREKEIERVMQVLSRRTKNNPVLIGEPGVGKTAVVEGLAQAIVHGEVPETLKDKQLYTLDLGSLVAGSRYRGDFEERLKKVLKEINTRGDIILFIDELHTLVGAGAAEGAIDAASILKPKLARGELQTIGATTLDEYRKYIEKDAALERRFQPVQVGEPTVEHTIEILKGLRDRYEAHHRVSITDAAMVAAATLADRYINDRFLPDKAIDLIDEAGARMRIRRMTAPPDLREFDEKIAEARREKESAIDAQDFEKAASLRDREKTLVAQRAEREKQWRSGDLDVVAEVDDEQIAEVLGNWTGIPVFKLTEAETTRLLRMEEELHKRIIGQEDAVKAVSKAIRRTRAGLKDPKRPSGSFIFAGPSGVGKTELSKALANFLFGDDDALIQIDMGEFHDRFTASRLFGAPPGYVGYEEGGQLTEKVRRKPFSVVLFDEIEKAHQEIYNSLLQVLEDGRLTDGQGRTVDFKNTVLIFTSNLGTSDISKPVGLGFSKGGGENDYERMKQKVNDELKKHFRPEFLNRIDDIIVFHQLTREEIIRMVDLMISRVAGQLKSKDMALVLTDAAKALLAKRGFDPVLGARPLRRTIQREIEDQLSEKILFEEVGPGQVVTVDVDNWDGEGPGEDAVFTFTGTRKPPAEPDLAKAGAHSAGGPEPAAR
Q: Does B1 bind?
A: binds
